From patent CN101643510A

Tests used:
[1] = molecular target: CD25人源化单抗 (Zenapax, ROCHE公司产品); assay: sandwich ELISA, compared with the commercial anti-kappa capture antibody
[2] = molecular target: CD25人源化单抗 (Zenapax, ROCHE公司产品); assay: sandwich ELISA, 5G7 coated at 1 μg/ml, Zenapax titrated, HRP anti-human IgG Fc gamma detection

灵敏度 fold against 市售抗体 [1]: 100 fold
灵敏度 (detection sensitivity) [2]: 0.01 ng/mL
B1: 重组抗CD25人源化单克隆抗体的抗体 5G7 (antibody, V domains shown)
VH: EVKLEESGGGLEQPGGSMKLSCVASGFTFSNYWMNWVRQSPDKGLEWVAQIRWKSDNYATHYAESVKGRFSISRDDSKSSVYLQMNNLRVEDSGIYYCTGGGSYVAHWGQGTLVTVSA
VL: DIVLTQSPASLAVSLGQSVTVSCRASESVENYGTTLMQWYQQKPGQPPKLLIYGVSNVESGVPARFSGSGSGTDFTLNIHPVEEDDIAMYFCQQSRKVPWTFGGGTKLEIKR
